Assay results from article PMC2777437.

How the values were obtained:
[1] = target: T1, RHD-CBFb complex (UniProt Q01196;Q13951 50-178;1-141); experiment: fluorescence anisotropy
[2] = target: T1, RHD-CBFb complex; experiment: fluorescence anisotropy; remark: listed apart in the source

T1 sequence (Q01196 50-178, chain 1 of 2): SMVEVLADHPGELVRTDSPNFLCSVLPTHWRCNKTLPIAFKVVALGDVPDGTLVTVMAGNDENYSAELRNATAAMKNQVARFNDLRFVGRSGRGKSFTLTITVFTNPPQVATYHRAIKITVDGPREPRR
T1 sequence (Q13951 1-141, chain 2 of 2): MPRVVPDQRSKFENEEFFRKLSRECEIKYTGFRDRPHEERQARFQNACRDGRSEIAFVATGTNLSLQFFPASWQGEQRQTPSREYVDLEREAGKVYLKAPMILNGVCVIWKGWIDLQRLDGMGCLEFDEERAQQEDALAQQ

Binder: GGUCCAGGCGCGUUAGCAAAACCGCGGAUC (structured_RNA, none) [Apt45A]
- Kd [1]: 162 ± 102 nM

Binder: ATTACCGGCGAGTTTTGAACCGCGTAAT (ssDNA) [DNA Apt28A]
- binding result [2]: no binding

Binder: AUUACCGGCGAGUUUUGAACCGCGUAAU (structured_RNA, none) [Apt28A]
- Kd [1]: 108 ± 34 nM
